In the DeepSol protein solubility set:

Assay: soluble on expression in E. coli; label from the status in PepcDB or PDB records

Sequence | soluble on expression in E. coli
MSLVMKASVDDDDSGWELSMPEKMEKSNTNWVDITQDFEEACRELKLGELLHDKLFGLFEAMSAIEMMDPKMDAGMIGNQVNRKVLNFEQAIKDGTIKIKDLTLPELIGIMDTCFCCLITWLEGHSLAQTVFTCLYIHNPDFIEDPAMKAFALGILKICDIAREKVNKAAVFEEEDFQSMTYGFKMANSVTDLRVTGMLKDVEDDMQRRVKSTRSRQGEERDPEVELEHQQCLAVFSRVKFTRVLLTVLIAFTKKETSAVAEAQKLMVQAADLLSAIHNSLHHGIQAQNDTTKGDHPIMMGFEPLVNQRLLPPTFPRYAKIIKREEMVNYFARLIDRIKTVCEVVNLTNLHCILDFFCEFSEQSPCVLSRSLLQTTFLVDNKKVFGTHLMQDMVKDALRSFVSPPVLSPKCYLYNNHQAKDCIDSFVTHCVRPFCSLIQIHGHNRARQRDKLGHILEEFATLQDEAEKVDAALHTMLLKQEPQRQHLACLGTWVLYHNLRIMIQYLLSGFELELYSMHEYYYIYWYLSEFLYAWLMSTLSRADGSQMAEERIMEEQQKGRSSKKTKKKKKVRPLSREITMSQAYQNMCAGMFKTMVAFDMDGKVREGHHHHHH | not soluble
MSLGQKFAVFIAYDDEPNTKRYSAEFQTQDEYVKGWQSALKKAHHTSGQKSVISCGCRGKGAKRLYVRSLPNSDTFILIKAANTGTEHDPSCVFFDLDARHTGLKGYASNVVRINNEGTMSIRLGIGMTEKDPPEKSEVPSLPQIQRPEGGQASMTLSGLLSLLWTEAGLNVWYPNMAGKRNDSLVRYRMLEAAKQIRSGRACIGDHLFIGVADSKSKVASEQVQLLSSAELSDKRLLLLSVLPRYDAEKHEKPLKFLPMRNFGGMPLTFFNSDGHWDSVKRRFPLEYAAWKNGGKVVVFALTSPVSVTSRGISARAHQIVLMLVSDNWIPLDSSYEAIVSRKLDAEHRHYVKPMRYDASASDVFPDFYLLDTRSDKPFPMEVFGMSTPAYLARKELKKAYYNQEYGAYGWWHWDATEKTEYQELPHFPEARREGHHHHHH | soluble
MPSRKFADGEVVRGRWPGSSLYYEVEILSHDSTSQLYTVKYKDGTELELKENDIK | soluble
MKLSPSMLDKLLRLGYSKLFADRYFQLWGERAIRIAEAMEKPLPRCFRVNTLKISVQDLVKRLNKKGFQFKRVPWAKEGFCLTREPFSITSTPEFLTGLIYIQEASSMYPPVALDPKPGEIVADMAAAPGGKTSYLAQLMRNDGVIYAFDVDENRLRETRLNLSRLGVLNVILFHSSSLHIGELNVEFDKILLDAPCTGSGTIHKNPERKWNRTMDDIKFCQGLQMRLLEKGLEVLKPGGILVYSTCSLEPEENEFVIQWALDNFDVELLPLKYGEPALTNPFGIELSEEIKNARRLYPDVHETSGFFIAKIRKL | soluble
MSFPTSITDHPIVQEAVHRLDDLGDPRAGQTLTRCLNDTLARTIRPMPDGTAFVVTGDIPAMWLRDSSTQMMPYLALLKDDTALQHLLLAVLRRQFQQIAHDPYANAFNAEPSGRAHDPEDLCGDPWVWEQKYEVDSLAFPLLLAHRFWAATGRTDHVPGMLRTARTVISVWRTEQDHERLSTYRFRRENGPSSDTLPNAGRGTPVTRTGMTWSGFRPSDDACAFGYNVPANLCAAAALDGAAELAHHTHDTELAEDAARLAAELRAATARHGTVRHPDFGSIYAYEVDGNGNAVLMDDANMPGLLSLPLVANIPTTDPVYLATRGFVLSPRNPTWYRGTAAEGIGSPHTPDEHIWPIAIAVQGLTSNDTTERRWALTTLLATDAGTGQMHESFHKDDPHRFTRPWFSWANAMYAELALDTVGLGTRPLWQAGTLEHHHHHH | soluble
MTTNAIDGSLWLTNAVQPERKTGNQILGKDDFLKILLAQLENQDPLNPMEDKDFIAQMASFSSLEQMMNIANLMQQWMQASSRDALLRYSEWIGKTVHWQDGETMMSAVVQSVMQKDGQVTLGLDNGTTIAADAVVKVEQKG | not soluble
GSFTRFDLAIDDKKTYFSIPELLKKAQKGECISRFRKSDFNGSFDLSDGITGGTTIYFGSKKSEAYLCFYEKNYEQAEKYNIPLEELGDWNRYELRLKNERAQVAIDALLKTKDLTLIAMQIINNYVRFVDADENITREHWKTSLFWSDFIGDVGRLPLYVKPQKDFYQKSRNWLRNSCAPTMKMVLEADEHLGKTDLSDMIAEAELADKHKKMLDVYMADVADMVV | not soluble
GPGSMPVPPPPPPPPPPPPPPPPPANSGGPSASVGGAAAAVFAEICQGGDNITARLRHVTDDQKMYKQNIRHGEVDMSELEHKKAAAEERRRAQQRTESTTGEEAAQPPVLTLEGDKRWVVKHQAGSPAVQLQLVLDKAEMRHAVRIENCHHAYITITNKVNSVSIVNCTKVQVALQVIVSSLEVLGCADVDVQVAQAAPTIDIERSTSVNVYLLDKDEARNTEIVTACSSTVNVLFPSEKEEDIVERAIPEQFVTRIVPDGKGGHKLCTKPSESF | soluble
SMTTLFSKIKEVTELAAVSGHEAPVRAYLREKLTPHVDEVVTDGLGGIFGIKHSEAVDAPRVLVASHMDEVGFMVSEIKPDGTFRVVEIGGWNPMVVSSQRFKLLTRDGHEIPVISGSVPPHLTRGKGGPTMPAIADIVFDGGFADKAEAESFGIRPGDTIVPDSSAILTANEKNIISKAWDNRYGVLMVSELAEALSGQKLGNELYLGSNVQEEVGLRGAHTSTTKFDPEVFLAVDCSPAGDVYGGQGKIGDGTLIRFYDPGHLLLPGMKDFLLTTAEEAGIKYQYYCGKGGTDAGAAHLKNGGVPSTTIGVCARYIHSHQTLYAMDDFLEAQAFLQALVKKLDRSTVDLIKHY | soluble
MGSDKIHHHHHHMKDILVHIDDSERCSARLDIAIGLAKTFGARLTGLFARTESHRPSAVAHKASDQLTQARDAAKEAFTKACASAGITSRWWQLAHGEPGHVVSETMFCARYADLVVMGQTEPKSKIVPEEMVEHVILHCGRPVLVVPHTGSFPSVGERMALAWNAGKEAVRALNDAKPLMLKAKSVTVLSLRGPADDGSNAMGEVPQVDVLDHLAACGITASAERLAGEHIGKMDMLLSRLCDLGADLVVMGAHGHYGLSLKRGTGTRYVLAHMTVPVLMSN | not soluble
SVPIVSAWEKGMEAARALMDKYHVDNDLKANFKLLPDQVEALAAVCKTWLNEEHRGLQLTFTSNKTFVTMMGRFLQAYLQSFAEVTYKHHEPTGCALWLHRCAEIEGELKCLHGSIMINKEHVIEMDVTSENGQRALKEQSSKAKIVKNRWGRNVVQISNTDARCCVHDAACPANQFSGKSCGMFFSEGAKAQVAFKQIKAFMQALYPNAQTGHGHLLMPLRCECNSKPGHAPFLGRQLPKLTPFALSNAEDLDADLISDKSVLASVHHPALIVFQCCNPVYRNSRAQGGGPNCDFKISAPDLLNALVMVRSLWSENFTELPRMVVPEFKWSTKHQYRNVSLPVAHSDARQNPFDF | soluble
MLVCNPYEVVIHGTTSSGKIFRPSDWAERLCGILSSFTKDHRLSYSKWVRPILVDNIRCVAVDKKLETDNPQMFRFLMDFAADNDLRVIDCKALLEEREQGGQNNPADEHVMLAQAIEEKHAAEKAQEQTASGASYVLREIGADDTATAFAALSVLRSALTDINRFTEQINKVQRPQGYRLLGIFEEGKHNAVAVCGFREACTLASGRHIHIDDIVTLPQSRRKGYASRLLEEVRKIGAETGVTKIHLNVHVNHDRADAHRLYFKNGFEICAYHFRCDPK | not soluble
MAMVIPARNQMASQFLELPKRTSSLMAPTMVLQGHGGEIYTSQFSSDGSFLASAGYDQQIFLWNVFGECENFAVLKGHKGAIMEVKFNADSSHLVSAGTDKTVRVWDMETGSCIRNFKSHTDIVNSVDVNRRGPQMICSASDDGTVMVHDMRSKEAAKKFICKYQQTAVTFNDAADNVICGGIDNQIKVWDMLRNDVRYVLSGHRDTITSLSVSHNGNFLLSNSMDCSLMSWDIRPFVPAQRLVARYQGASHNFEKNLLKCGWSPRDNYITAGSADRFVYVWNAKSRACVYKLPGHLGSVNCTALHPTQQILLSAGSDKTIFLGELDLEDY | not soluble
MATPAYMSITGTKQGLITAGAFTEDSVGNTYQEGHEDQVMVQGFNHEVIIPRDPQSGQPTGQRVHKPVVITKVFDKASPLLLAALTSGERLTKVEIQWYRTSAAGTQEHYYTTVLEDAIIVDIKDYMHNCQDPGNAHFTHLEDVHFTYRKITWTHEVSGTSGSDDWRSPVAG | soluble
MGSDKIHHHHHHMMITSKSLNRKSIPAPLPSIAEDVLEGLSRTPKSLPPKLLYDATGSDLFEQITCLPEYYPTRTEAGILTVHAEEICSHLRRNVSVSELGAGTATKTRILLRSLVRQQFGVNYFPLDVSDAALQLAKDEVESELSRVKVHPQLGDFDNLTFLEHQSPPRLVLYIGSSIGNLENDAAIALLQNIARNLSTGDKLLLGADLVKDINVMHAAYNDEAGVTALFNKNLLVRINRELSGHFDPESFCHISFWNEAESRIELHLESACRQAVRIDTLDMTFHFDRGERIHTENSYKYTVEHLENLLRSGGFQVEHTWTDPDSWFAVSLGVIT | not soluble
MVREDRSTWKANYFTKLVELFEEYPKCLLVGVDNVGSKQMQEIRQAMRGHAEILMGKNTMIRKALRGHLGKNPSLEKLLPHIVENVGFVFTKEDLGEIRSKLLENRKGAPAKAGAIAPCDVKLPPQNTGMGPEKTSFFQALQIPTKIARGTIEILNDVHLIKEGDKVGASESALLNMLGVTPFSYGLVVRQVYDDGTLYTPEVLDMTTEELRKRFLSGVRNVASVSLAVNYPTLASVAHSLANGLQNMLGVAAVTDVSFKEAETIKAFIADPSKFAAAAPAAAAAPAAAAPAAKKEEPKEESDDDMGFGLFD | not soluble
MGSDKIHHHHHHMQQEIIDFRQSQSLAGAELSRASYQRFDFGRHVHEDLHLGAVIRGAQAFNHKGTGHTLCRGDLSTLSPDECHDGIAATDTGYEVLVLSLPQWHLDRFAAELGISFGGFCQPKRKDMALYQAFVSLHRLLYQAENPLLEETALLDFFQRLLGQCSKSEKVTNTGTVKAGLSREIRLAKSLMADTPEPVTLELLGDATGLGRYRLLRHFRAQTGLSPHQWQLRLRLERAKKSLMQNDGNSLTDIAHQHGFSDLSHFTRHFRMAFLTSPSAYRRAIRN | not soluble
MKFLQKEELRTLLQSLDLQSGINNDWFLLLIAKTGMRYAEALALTPSDFDWVNATVTIDKSWDYKTHRGFKKTKSTASDREIAIDWQIVGQFKPLIQDLPANDPIFIEKTERGTYKKQYNSTMNNYLEAKCKTLTITVISLHALRHTHASVLLAEGVSIHTISARLGHADVGVTQEIYAHVLDELQKKDDQKMMSVLMQIALEHHHHHH | soluble
MSNGAWTDQENDLIVADYFAMLADDVSGRPYNKAEHRRGLLPLLNDRSEGSVEFKHQNISAVLKGLGEDWIPGYKPAFNFQMTLVDAVARWLALNPAWLGRHSGTRAPTGLAEVRPIWIGPPPTLSNQPPPQELEQMLHIARKFDVAARDERNRALGRAGEERVLAHERATLKSAGRDDLARNVRWVSEEDGDGAGYDIASFALDGSPRLIEVKTTNGWERTPFHISRNELAVAEARRSEWSLFRLWNFAREPKAFELHPPLGAHVSLTATTFQASLHLEHHHHHH | not soluble
MRVVALVPGGIGDQILFFPTLDDLKRYYPNAQLDVVVEPRSKAAYRVSKSVNDILTFDYKDRNSLADWGNLVGTIRDREYDVVITVGQSWLVGLFLWLTGIPTRIGYQGKGRSFLTKTVPFKPSQYAAAVYHDLLAPIGITTPTPELAVNVPKPDIDWANSEQKRLGVNETGYVLIYGGSSWVSQPQALETIYPAENWQEIIQDFRQKQPDLPVVVIQGPDDEQFVRSLRDYSLDIKVTSPDNVGKLTAMIAGANLMLTTDSAPLHLSVAVQTYTIALFGSTDPVKLLPNSDKLLGIKSSTGRVADILPKAVLEKVWGGLEHHHHHH | not soluble
